Earlier results as cited in PMC4059260.
Read-outs that look alike come from different tables or passages of the source.

Columns and labels:
VEGF (Homo sapiens) [1] = biological target: VEGF (Homo sapiens) (UniProt P15692)
VEGF (Homo sapiens) [2] = biological target: VEGF (Homo sapiens) (UniProt P15692); remark: listed apart in the source

Chain of UniProt P15692 (P15692 whole entry): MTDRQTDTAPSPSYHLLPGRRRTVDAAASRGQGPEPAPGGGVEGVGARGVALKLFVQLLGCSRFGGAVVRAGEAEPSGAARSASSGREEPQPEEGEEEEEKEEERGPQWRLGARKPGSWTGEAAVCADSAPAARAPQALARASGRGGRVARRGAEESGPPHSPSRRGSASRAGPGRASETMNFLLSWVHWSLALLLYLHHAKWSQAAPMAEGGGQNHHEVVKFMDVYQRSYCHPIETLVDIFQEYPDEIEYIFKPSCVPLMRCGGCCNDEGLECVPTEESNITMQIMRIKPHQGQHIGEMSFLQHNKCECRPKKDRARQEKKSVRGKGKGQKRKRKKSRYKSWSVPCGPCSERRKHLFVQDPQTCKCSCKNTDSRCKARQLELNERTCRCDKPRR

Row | Kd (VEGF (Homo sapiens) [1]) | Kd (VEGF (Homo sapiens) [2]) | Substance
1 | 420 nM |  | alpha-2-macroglobulin (from UniProt P01023)
2 |  | 0.001 nM | sFlt-1 (from UniProt P17948)
